Data on 1 molecule can be found in US20130171130A1 (ZymoGenetics, published 2013).

Experiment [1] concerns the target T1, IL-20RA (expressed alone on BHK cells) (human, UniProt Q9UHF4 30-553).
T1 construct: BHK cells stably transfected with IL-20RA only; also called ZcytoR7; IL-20 receptor alpha chain
T1 sequence: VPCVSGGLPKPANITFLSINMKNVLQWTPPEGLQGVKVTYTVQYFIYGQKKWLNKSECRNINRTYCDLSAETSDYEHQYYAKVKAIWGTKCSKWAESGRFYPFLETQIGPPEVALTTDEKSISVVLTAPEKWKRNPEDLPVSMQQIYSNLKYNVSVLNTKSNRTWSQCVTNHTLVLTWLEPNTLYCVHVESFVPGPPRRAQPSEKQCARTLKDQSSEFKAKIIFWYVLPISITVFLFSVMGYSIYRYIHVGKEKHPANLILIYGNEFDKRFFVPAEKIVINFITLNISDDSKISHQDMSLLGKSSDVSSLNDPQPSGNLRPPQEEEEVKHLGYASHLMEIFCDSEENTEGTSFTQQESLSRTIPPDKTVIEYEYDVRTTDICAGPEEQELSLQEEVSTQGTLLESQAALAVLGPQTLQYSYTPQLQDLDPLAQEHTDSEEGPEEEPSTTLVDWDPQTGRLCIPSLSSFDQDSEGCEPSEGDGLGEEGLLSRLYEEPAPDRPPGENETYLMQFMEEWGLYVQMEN
Put plainly: radiolabeled ligand binding on stably transfected BHK cells. The method, then:
(§1) The specificity and affinity of IL-20 for its receptor was determined using BHK cells stably transfected with IL-20RA, IL-20RB or both receptor subunits. […] Binding of ¹²⁵I-labeled IL-20 was eliminated in the presence of 100-fold excess of unlabeled IL-20 but not with 100-fold excess of the unrelated cytokine, IL-21.

Experiment [2] deals with T2, IL-20RB (expressed alone on BHK cells) (human, UniProt Q6UXL0 30-311).
T2 construct: BHK cells stably transfected with IL-20RB only; also called DIRS1; IL-20 receptor beta chain
T2 sequence: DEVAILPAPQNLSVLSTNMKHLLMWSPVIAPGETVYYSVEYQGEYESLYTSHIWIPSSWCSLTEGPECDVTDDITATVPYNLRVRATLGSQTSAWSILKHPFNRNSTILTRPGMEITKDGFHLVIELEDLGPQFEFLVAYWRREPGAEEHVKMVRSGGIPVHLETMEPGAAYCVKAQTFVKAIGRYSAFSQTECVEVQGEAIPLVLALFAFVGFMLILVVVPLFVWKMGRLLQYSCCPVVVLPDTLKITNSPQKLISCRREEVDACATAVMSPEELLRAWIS
The description is as above. The method, then: as §1

In experiment [3] the target is T3, IL-20RA/IL-20RB heterodimeric receptor (human, UniProt Q9UHF4 30-553; Q6UXL0 30-311).
T3 construct: Both subunits co-expressed on transfected COS, BHK or BaF3 cells, or endogenous on HaCaT keratinocytes; also called IL-20RB/IL-20RA heterodimer; IL-20 receptor
T3 sequence 1: T1 sequence
T3 sequence 2: T2 sequence
Put plainly: 125I-labeled IL-20 binding on BHK cells expressing IL-20RA and IL-20RB. The method, then:
as §1

As a reminder, the Kd is the free concentration of one partner at which half of the binding sites on the other are occupied at equilibrium, for simple one-to-one binding.

B1: IL-20 (Interleukin-20) (ligand, UniProt Q9NYY1 25-176, looked up)
chain: LKTLNLGSCVIATNLQEIRNGFSEIRGSVQAKDGNIDIRILRRTESLQDTKPANRCCLLRHLLRLYLDRVFKNYQTPDHYTLRKISSLANSFLTIKKDLRLCHAHMTCHCGEEAMKKYSQILSHFEKLEPQAAVVKALGELDILLQWMEETE
notes: also called Zcyto10; IL-20 protein
For the molecule B1, the binding result in experiment [1] and in experiment [2] was “no binding” throughout. The molecule further returned a Kd in experiment [3] of approximately 1.5 nM.
